Changes are numbered by the printed parent chain. In names and notes the source's numbering stands. Where two headings read alike, the source gives them in different places.
B1: human adenylosuccinate lyase (ASL), wild type, His-tag (enzyme)
chain: MAAGGDHGSPDSYRSPLASRYASPEMCFVFSDRYKFRTWRQLWLWLAEAEQTLGLPITDEQIQEMKSNLENIDFKMAAEEEKRLRHDVMAHVHTFGHCCPKAAGIIHLGATSCYVGDNTDLIILRNALDLLLPKLARVISRLADFAKERASLPTLGFTHFQPAQLTTVGKRCCLWIQDLCMDLQNLKRVRDDLRFRGVKGTTGTQASFLQLFEGDDHKVEQLDKMVTEKAGFKRAFIITGQTYTRKVDIEVLSVLASLGASVHKICTDIRLLANLKEMEEPFEKQQIGSSAMPYKRNPMRSERCCSLARHLMTLVMDPLQTASVQWFERTLDDSANRRICLAEAFLTADTILNTLQNISEGLVVYPKVIERRIRQELPFMATENIIMAMVKAGGSRQDCHEKIRVLSQQAASVVKQEGGDNDLIERIQVDAYFSPIHSQLDHLLDPSSFTGRASQQVQRFLEEEVYPLLKPYESVMKVKAE
B2: human adenylosuccinate lyase (ASL) R396H, His-tag (enzyme)
chain: B1 chain with R396H
B3: human adenylosuccinate lyase (ASL) L311V, His-tag (enzyme)
chain: B1 chain with L311V
B4: human adenylosuccinate lyase (ASL), wild type, non-His-tag (enzyme)
chain: B1 chain
B5: human adenylosuccinate lyase (ASL) R194C, His-tag (enzyme)
chain: B1 chain with R194C
B6: human adenylosuccinate lyase (ASL) R396C, His-tag (enzyme)
chain: B1 chain with R396C
B7: human adenylosuccinate lyase (ASL) R396C, non-His-tag (enzyme)
chain: B1 chain with R396C
B8: human adenylosuccinate lyase (ASL) R396H, non-His-tag (enzyme)
chain: B1 chain with R396H

How the values were obtained:
[1] = target: the molecule itself; assay: AUC
[2] = target: the molecule itself; assay: AUC; remark: listed apart in the source
[3] = target: B1; assay: AUC
[4] = target: the molecule itself; assay: AUC; remark: listed apart in the source
[5] = target: B1; assay: in vitro subunit hybridisation with separation on Ni-NTA
[6] = target: B1; assay: AUC; remark: listed apart in the source
[7] = target: B5; assay: AUC
[8] = target: the molecule itself; assay: AUC; remark: listed apart in the source
[9] = target: B5; assay: AUC; remark: listed apart in the source
[10] = target: B5; assay: in vitro subunit hybridisation with separation on Ni-NTA
[11] = target: B3; assay: AUC
[12] = target: B3; assay: AUC; remark: listed apart in the source
[13] = target: B3; assay: in vitro subunit hybridisation with separation on Ni-NTA

Row | percent tetramer (M-Tet model), pool 2 [3] | percent tetramer (M-Tet model), pool 3 [3] | subunit ratio (Non-His-tag: His-tag) by SDS-PAGE, pool 2 [5] | subunit ratio (Non-His-tag: His-tag) by SDS-PAGE, pool 3 [5] | Binder | stoichiometry N [1] | percent tetramer (M-Tet model) [2] | also measured
1 |  |  |  |  | B1 | 4 | 77% | 
2 |  |  |  |  | B2 | 4 |  | 
3 |  |  |  |  | B3 | 4 | 68% | 
4 | 73% | 75% | 1.3 non-His-tag per His-tag subunit | 3.7 His-tag per non-His-tag subunit | B4 |  |  | percent tetramer (M-Tet model), pool 1 [4]: 68%
5 |  |  |  |  | B5 | 4 | 73% | 
6 |  |  |  |  | B6 | 4 | 78% | 
7 | 72% | 70% | 1.2 non-His-tag per His-tag subunit | 2.3 His-tag per non-His-tag subunit | B7 |  |  | stoichiometry N [6]: 4; stoichiometry N [7]: 4; stoichiometry N [8]: 4; percent tetramer (M-Tet model), pool 2 [9]: 78%; percent tetramer (M-Tet model), pool 3 [9]: 80%; subunit ratio (Non-His-tag: His-tag) by SDS-PAGE, pool 2 [10]: 1.2 non-His-tag per His-tag subunit; subunit ratio (Non-His-tag: His-tag) by SDS-PAGE, pool 3 [10]: 3.2 His-tag per non-His-tag subunit
8 | 73% | 72% | 1.1 non-His-tag per His-tag subunit | 1.6 His-tag per non-His-tag subunit | B8 |  |  | stoichiometry N [6]: 4; stoichiometry N [11]: 4; stoichiometry N [8]: 4; percent tetramer (M-Tet model), pool 2 [12]: 74%; percent tetramer (M-Tet model), pool 3 [12]: 74%; subunit ratio (Non-His-tag: His-tag) by SDS-PAGE, pool 2 [13]: 1.8 non-His-tag per His-tag subunit; subunit ratio (Non-His-tag: His-tag) by SDS-PAGE, pool 3 [13]: 1 non-His-tag per His-tag subunit

Source: PMC3043148 (Biochemistry, 2011)
